Here are results for 32 sequences from the supplement of paper PMC10201428.

± gives the standard deviation of the averaged measurements.

The subject of the series is VchCAST RNA-guided transposition machinery (E. coli BL21(DE3) host, lacZ target). Kind of series: relative integration efficiency (T-RL orientation) vs wild-type transposon end (log2 (normalized fold change)); transposon end mutated: right end (5 bp flank + 75 bp right end); higher = more efficient transposition. The gist of the method: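 Barcode abundances in input plasmids and in genomic integration junctions were obtained by PCR amplification and Illumina sequencing. These came from E. coli BL21(DE3) co-transformed with a T7-driven effector plasmid and a pUC57 donor carrying 1549 left-end or 1849 right-end transposon variants, then plated with 0.1 mM IPTG at 37°C for 18 h. Relative integration efficiency is the output/input fold change, normalised to reference barcodes and log-transformed.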
For the sequence “TGTATTGTTGATACAACCATAAAATGATAATTACACCCATAAATTGATAATTATCACACCCATAAATTGATATTGCCTCTGATCATAGTCAGACCAACATTGCTACGACCCGTATTCGCACCGACAC”, the “relative integration efficiency (log2)” value was -0.0404 ± 0.0046.

For “ACATTTGTTGATACAACCATAAAATGATAAATACACCCATAAATTGATAATGATGACACCGAATTTAACTATAACGCTCTGATCATAGTCAGACCAACATTGCTACGACCCGTATTCGCACCGACAC”, the “relative integration efficiency (log2)” value was -0.862 ± 0.42.

For “ACATTTCTTCATACAACCATAAAATGATAATTACACCCATAAATTGATAATTATCACACCCAATTTAACTATAACGCTCTGATCATAGTCAGACCAACATTGCTACGACCCGTATTCGCACCGACAC”, the “relative integration efficiency (log2)” value is -3.68 ± 0.52. Regarding “ACATTTGTTGATACAACCATAAAATGATAATTAATAATTATTTATAATCAGCACCCATAAATTGATAATTATCACACCCATAAATTGATATTGCCTCTGATCATAGTCAGACCAACATTGCTACGAC”, the “relative integration efficiency (log2)” value is -3.29 ± 0.1. With “ACATTTGTTGATACAACCATAAAATGATAATTAATAATTATCACCCATAAATTGATAATTATCACACCCATAAATTGATATTGCCTCTGATCATAGTCAGACCAACATTGCTACGACCCGTATTCGC”, the “relative integration efficiency (log2)” value is -3.32 ± 0.2. For the sequence “ACATTTGTTGATAAAACCATAAAATGATAATTAGACCCATAAATTGATAATTATCACACCCATAAATTGATATTGCCTCTGATCATAGTCAGACCAACATTGCTACGACCCGTATTCGCACCGACAC”, the “relative integration efficiency (log2)” value is -1.09 ± 0.15.

Consider “ACATTTGTTGATACCCAAATAAAATGATAATTACACCCATAAATTGATAATTATCACACCCATAAATTGATATTGCCTCTGATCATAGTCAGACCAACATTGCTACGACCCGTATTCGCACCGACAC”, for which the “relative integration efficiency (log2)” value is -2.59 ± 0.17. As to “ACATTTCTTCATACAACCATAAAATGATAATTACACCCATAAATTCATAATTATCACACCCAATTTAACTATAACGCTCTGATCATAGTCAGACCAACATTGCTACGACCCGTATTCGCACCGACAC”, the “relative integration efficiency (log2)” value is -5.24 ± 0.61. Regarding “ACATTTGTTGATACAACCATAAAATGATAATTACACCCATAAATGTCGCCGGCGACACAAACGCCCGGTCGCGGTAAGAGGATCATAGTCAGACCAACATTGCTACGACCCGTATTCGCACCGACAC”, the “relative integration efficiency (log2)” value is -1.73 ± 0.3. “ACATTTGTGGATACAACCATAAAATGATAATTACACCCATAAATTCATCATTATCACCCCCAATTTAACTATAACGCTCTGATCATAGTCAGACCAACATTGCTACGACCCGTATTCGCACCGACAC”: the “relative integration efficiency (log2)” value is -1.88 ± 0.43. As for “ACATTTGTTGATACACCCATAAATTGATAATTACAACCATAAGTTGATATTTTTCACAACCATAAAATGATAATTACTCTGATCATAGTCAGACCAACATTGCTACGACCCGTATTCGCACCGACAC”, the “relative integration efficiency (log2)” value was -0.644 ± 0.31. On to “ACATTTGTTGATACAACCATAAAATGATAATTACACCCATAAATTGATAATTCACACCCATAAATTGATATTGCCTCTGATCATAGTCAGACCAACATTGCTACGACCCGTATTCGCACCGACACTG”, for which the “relative integration efficiency (log2)” value was -1.06 ± 0.18. On to “ACATTTGATGATAGAACCATTTAATGATAATAACACCCATAAAATGATAATTATCACACCCAATTTAACTATAACGCTCTGATCATAGTCAGACCAACATTGCTACGACCCGTATTCGCACCGACAC”, for which the “relative integration efficiency (log2)” value is -2.75 ± 0.52. “ACATTTGTTGATACAACCATAAAATGATAATTACACCCATAAATTCATAATTATCACCCCCAATTTAACTATAACGCTCTGATCATAGTCAGACCAACATTGCTACGACCCGTATTCGCACCGACAC”: the “relative integration efficiency (log2)” value was -1.95 ± 0.33. Take “ACATTTGTTGATACAACCATATATTGATATCTCCACCCATAAATTGATAATTATCACAACCATAAGTTGATATTTTCTCTGATCATAGTCAGACCAACATTGCTACGACCCGTATTCGCACCGACAC”: the “relative integration efficiency (log2)” value is -0.316 ± 0.1.

As for “ACATTTGTTGATACAACCATAAAAGGATAATTACACCCATAAATTGATAATTATCACACCCCATTTAACTATAACGCTCTGATCATAGTCAGACCAACATTGCTACGACCCGTATTCGCACCGACAC”, the “relative integration efficiency (log2)” value is -1.31 ± 0.2. For the sequence “ACATTTGTTGATACAACCATAAAATGATAATTACACCCATAAATTGTATTTTATCACACCCATAAATTGATATTGCCTCTGATCATAGTCAGACCAACATTGCTACGACCCGTATTCGCACCGACAC”, the “relative integration efficiency (log2)” value was -0.924 ± 0.063. In the case of “ACATTTGTTGATACAACCATAAAATGATAATTACACCCATAAATTGATAATTATCAGTGGCATAAATTGATATTGCCTCTGATCATAGTCAGACCAACATTGCTACGACCCGTATTCGCACCGACAC” it was -0.377 ± 0.12. For “ACATTTGTTGATACAACCATAAAATGATAATTACTCTGATCATCACCCATAAATTGATAATTATCAGTGGGTATTTAACTATAACGAGTCAGACCAACATTGCTACGACCCGTATTCGCACCGACAC”, the “relative integration efficiency (log2)” value is -3.53 ± 0.084. As to “ACATTTGTGGATACAACCATAAAATGATAATTACCACCCCTACATTGATAATTATCACACCCATTTAACTATAACGCTCTGATCATAGTCAGACCAACATTGCTACGACCCGTATTCGCACCGACAC”, the “relative integration efficiency (log2)” value is -3.07 ± 0.21.

As to “ACATTTGTTGATACAACCATAAAAGGATCATTACCCCCATCAATTGATAATTATCACACCCCATTTAACTATAACGCTCTGATCATAGTCAGACCAACATTGCTACGACCCGTATTCGCACCGACAC”, the “relative integration efficiency (log2)” value is -4.59 ± 0.85. The result for “ACATTTGTTGATACAACCATAAAGTGATATTTACACCCATAAATTGATATTGCTCACAACCATAAAGTGATATTTACTCTGATCATAGTCAGACCAACATTGCTACGACCCGTATTCGCACCGACAC” reads -0.237 ± 0.17; that for “ACATTTGTTGATACACACATAAAATGATAATTACACCCATAAATTGATAATTATCACACCCATAAATTGATATTGCCTCTGATCATAGTCAGACCAACATTGCTACGACCCGTATTCGCACCGACAC”, -0.5621 ± 0.0046. In the case of “ACATTTGTGGATACAACCATAAAATGATAATTACCACCCCTAAATTGATAATTATCACACCCATTTAACTATAACGCTCTGATCATAGTCAGACCAACATTGCTACGACCCGTATTCGCACCGACAC” it was -2.781 ± 0.006.

Turning to “ACATTTGTTGATACACCCATAAATTGATATTGCCAACCATAAAATGATAATTATCACAACCATATATTGATATCTCCTCTGATCATAGTCAGACCAACATTGCTACGACCCGTATTCGCACCGACAC”, the “relative integration efficiency (log2)” value is -0.961 ± 0.18.

As to “ACATTTGTTGATACAACCATAAAATGATAATTACACCCATAAATGGATCATTATCACCCCCAATTTAACTATAACGCTCTGATCATAGTCAGACCAACATTGCTACGACCCGTATTCGCACCGACAC”, the “relative integration efficiency (log2)” value is -1.44 ± 0.18.

For the sequence “ACATTTGTGGATACAACCCTAAAATGATAATTACACCCATAAATTGATCATTATCACCCCCAATTTAACTATAACGCTCTGATCATAGTCAGACCAACATTGCTACGACCCGTATTCGCACCGACAC”, the “relative integration efficiency (log2)” value is -2.87 ± 0.27. For “ACATTTGTTGATACAACCATAAAATGATAATTACACCCATAAATTGAATTATATCACACCCATAAATTGATATTGCCTCTGATCATAGTCAGACCAACATTGCTACGACCCGTATTCGCACCGACAC”, the “relative integration efficiency (log2)” value was -1.65 ± 0.026. Take “ACATTTGTTGATACAACCATAAAATGATAATTACACCCATAAATTGATACGTATCACACCCATAAATTGATATTGCCTCTGATCATAGTCAGACCAACATTGCTACGACCCGTATTCGCACCGACAC”: the “relative integration efficiency (log2)” value was -0.704 ± 0.012.

In the case of “ACATTTGTTGATACAACCAATAAAAGATAATTACACCCATAAATTGATAATTGTGACACCGAATTTAACTATAACGCTCTGATCATAGTCAGACCAACATTGCTACGACCCGTATTCGCACCGACAC”, the “relative integration efficiency (log2)” value is -2 ± 0.21.

For “ACATTTGTTGATACAACCATAAAATGATAATTACTCTGATCATAGTCAGACCACACCCATAAATTGATAATTATCACACCCATAAATTGATATTGCACATTGCTACGACCCGTATTCGCACCGACAC”, the “relative integration efficiency (log2)” value is -4.6 ± 0.057.

Take “ACATTTGTTGATACACCCATAAATTGATATTGCCAACCATAAAGTGATATTTATCACACCCATAAATTGATATTGCCTCTGATCATAGTCAGACCAACATTGCTACGACCCGTATTCGCACCGACAC”: the “relative integration efficiency (log2)” value was -0.74 ± 0.11.
